The text below walks through data of patent US20170137511A1.

The experiment concerns the target biotinylated human IL-15 (R&D Systems cat. no. NF150) (human) (UniProt P40933). The experiment is described as follows: blocking ELISA: biotinylated human IL-15 (100 pM) binding to plate-bound IL-15Rα-Fc, antibody titrated, streptavidin-peroxidase, absorbance at 450 nm; the filing does not say in words which of the two partners the control antibody binds. On the technique in general: In an ELISA, binding on a coated surface is turned into a signal by an enzyme label.

Sequence of biotinylated human IL-15 (R&D Systems cat. no. NF150) (human) (P40933 49-162 limits assumed): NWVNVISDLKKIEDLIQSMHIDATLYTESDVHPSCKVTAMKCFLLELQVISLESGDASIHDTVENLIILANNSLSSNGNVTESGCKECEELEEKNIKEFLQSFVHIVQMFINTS

In turn, “antibody known to block IL-15 binding to IL-15Rα (R&D Systems cat. no. NF150)” showed an IC50 (read off the curve) of 10000 ng/mL.
